Experimental data published in the supplement of paper PMC9112550, “Optimization of the antimicrobial peptide Bac7 by deep mutational scanning” (BMC Biology, 2022).

System: Escherichia coli TOP10
Experiment: shrunken log2 fold change of peptide-encoding DNA abundance (4.5 h post-induction vs induction); higher = less antimicrobial activity (less host growth inhibition)
Conditions: time post-induction: 4.5 h; library: site-saturation at positions 5, 18, 19, 20
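Also: peptides expressed intracellularly from a pBAD plasmid library in pooled LB shake-flask culture, induced with 0.3% L-arabinose, DNA abundance read by NGS, three biological replicates, DESeq2 with apeglm shrinkage.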

Sequence | shrunken log2 fold change
RRIRNRPPRLPRPRPRPLWQPRP | -0.303
RRIRNRPPRLPRPRPRPLWRPRP | 0.179
RRIRNRPPRLPRPRPRPLWTPRP | -0.247
RRIRNRPPRLPRPRPRPMADPRP | 0.0252
RRIRNRPPRLPRPRPRPMAIPRP | -0.00192
RRIRNRPPRLPRPRPRPMCEPRP | -0.0162
RRIRNRPPRLPRPRPRPMEAPRP | 0.0369
RRIRNRPPRLPRPRPRPMGCPRP | -0.187
RRIRNRPPRLPRPRPRPMHFPRP | -0.145
RRIRNRPPRLPRPRPRPMHTPRP | 0.0242
RRIRNRPPRLPRPRPRPMIMPRP | -1.96
RRIRNRPPRLPRPRPRPMIQPRP | -0.715
RRIRNRPPRLPRPRPRPMKIPRP | -0.121
RRIRNRPPRLPRPRPRPMLPPRP | 0.00241
RRIRNRPPRLPRPRPRPMLWPRP | 0.0244
RRIRNRPPRLPRPRPRPMMTPRP | -0.312
RRIRNRPPRLPRPRPRPMNHPRP | 0.0515
RRIRNRPPRLPRPRPRPMNIPRP | -0.24
RRIRNRPPRLPRPRPRPMTIPRP | -0.35
RRIRNRPPRLPRPRPRPMVFPRP | -0.000155
RRIRNRPPRLPRPRPRPMVVPRP | 0.00587
RRIRNRPPRLPRPRPRPMWRPRP | -0.0211
RRIRNRPPRLPRPRPRPMYCPRP | -0.268
RRIRNRPPRLPRPRPRPMYFPRP | -0.0737
RRIRNRPPRLPRPRPRPNAKPRP | -0.109

Sequence | shrunken log2 fold change
RRIRNRPPRLPRPRPRPNAMPRP | 0.0458
RRIRNRPPRLPRPRPRPNCCPRP | -0.124
RRIRNRPPRLPRPRPRPNCDPRP | -0.237
RRIRNRPPRLPRPRPRPNFDPRP | 0.215
RRIRNRPPRLPRPRPRPNFIPRP | -0.105
RRIRNRPPRLPRPRPRPNGHPRP | -0.41
RRIRNRPPRLPRPRPRPNGPPRP | -0.015
RRIRNRPPRLPRPRPRPNITPRP | -0.693
RRIRNRPPRLPRPRPRPNLQPRP | -0.446
RRIRNRPPRLPRPRPRPNPGPRP | 0.118
RRIRNRPPRLPRPRPRPNPHPRP | -0.116
RRIRNRPPRLPRPRPRPNRSPRP | -0.165
RRIRNRPPRLPRPRPRPNSMPRP | -0.815
RRIRNRPPRLPRPRPRPNSQPRP | -0.265
RRIRNRPPRLPRPRPRPNTIPRP | -0.0529
RRIRNRPPRLPRPRPRPNTLPRP | -0.788
RRIRNRPPRLPRPRPRPNVSPRP | 0.0376
RRIRNRPPRLPRPRPRPNWMPRP | -0.199
RRIRNRPPRLPRPRPRPNYWPRP | -0.694
RRIRNRPPRLPRPRPRPPAYPRP | 0.0856
RRIRNRPPRLPRPRPRPPCSPRP | -0.327
RRIRNRPPRLPRPRPRPPERPRP | 0.537
RRIRNRPPRLPRPRPRPPGIPRP | -0.0351
RRIRNRPPRLPRPRPRPPGMPRP | -0.138
RRIRNRPPRLPRPRPRPPGRPRP | 0.769

Sequence | shrunken log2 fold change
RRIRNRPPRLPRPRPRPPHDPRP | 0.114
RRIRNRPPRLPRPRPRPPHGPRP | -0.0913
RRIRNRPPRLPRPRPRPPHIPRP | -0.311
RRIRNRPPRLPRPRPRPPHKPRP | -0.136
RRIRNRPPRLPRPRPRPPIPPRP | -0.0646
RRIRNRPPRLPRPRPRPPLPPRP | 0.363
RRIRNRPPRLPRPRPRPPMFPRP | -0.0155
RRIRNRPPRLPRPRPRPPNLPRP | -0.166
RRIRNRPPRLPRPRPRPPPHPRP | 0.794
RRIRNRPPRLPRPRPRPPQNPRP | -0.0172
RRIRNRPPRLPRPRPRPPRTPRP | 0.59
RRIRNRPPRLPRPRPRPPSCPRP | -0.134
RRIRNRPPRLPRPRPRPPSGPRP | -0.0646
RRIRNRPPRLPRPRPRPPSLPRP | -0.0145
RRIRNRPPRLPRPRPRPPSQPRP | 0.16
RRIRNRPPRLPRPRPRPPSTPRP | 0.0609
RRIRNRPPRLPRPRPRPPSWPRP | 0.161
RRIRNRPPRLPRPRPRPPTDPRP | 0.992
RRIRNRPPRLPRPRPRPPVIPRP | -0.00994
RRIRNRPPRLPRPRPRPPYWPRP | 0.0294
RRIRNRPPRLPRPRPRPPYYPRP | -0.575
RRIRNRPPRLPRPRPRPQAEPRP | -0.155
RRIRNRPPRLPRPRPRPQCDPRP | -0.282
RRIRNRPPRLPRPRPRPQDPPRP | -0.296
RRIRNRPPRLPRPRPRPQDYPRP | 0.087

Sequence | shrunken log2 fold change
RRIRNRPPRLPRPRPRPQEMPRP | -0.218
RRIRNRPPRLPRPRPRPQGCPRP | 0.0942
RRIRNRPPRLPRPRPRPQHKPRP | -0.155
RRIRNRPPRLPRPRPRPQKLPRP | -0.188
RRIRNRPPRLPRPRPRPQLWPRP | -0.252
RRIRNRPPRLPRPRPRPQMKPRP | -0.281
RRIRNRPPRLPRPRPRPQMQPRP | -0.0154
RRIRNRPPRLPRPRPRPQNYPRP | -0.846
RRIRNRPPRLPRPRPRPQRCPRP | 0.0227
RRIRNRPPRLPRPRPRPQRQPRP | 0.0149
RRIRNRPPRLPRPRPRPQSHPRP | -0.68
RRIRNRPPRLPRPRPRPQTIPRP | -0.194
RRIRNRPPRLPRPRPRPQTLPRP | -0.513
RRIRNRPPRLPRPRPRPQTWPRP | -0.183
RRIRNRPPRLPRPRPRPQWLPRP | -0.317
RRIRNRPPRLPRPRPRPQYRPRP | 0.576
RRIRNRPPRLPRPRPRPRAGPRP | 0.25
RRIRNRPPRLPRPRPRPRAYPRP | 0.0694
RRIRNRPPRLPRPRPRPRCLPRP | -0.157
RRIRNRPPRLPRPRPRPRDQPRP | -0.0345
RRIRNRPPRLPRPRPRPRFDPRP | 0.0608
RRIRNRPPRLPRPRPRPRFLPRP | 0.0562
RRIRNRPPRLPRPRPRPRGCPRP | 0.366
RRIRNRPPRLPRPRPRPRIAPRP | 0.069
RRIRNRPPRLPRPRPRPRIEPRP | -0.117

Sequence | shrunken log2 fold change
RRIRNRPPRLPRPRPRPRISPRP | -0.408
RRIRNRPPRLPRPRPRPRKGPRP | -0.16
RRIRNRPPRLPRPRPRPRKLPRP | -0.0702
RRIRNRPPRLPRPRPRPRKNPRP | 0.161
RRIRNRPPRLPRPRPRPRKTPRP | -0.0384
RRIRNRPPRLPRPRPRPRLRPRP | 0.0785
RRIRNRPPRLPRPRPRPRLVPRP | 0.114
RRIRNRPPRLPRPRPRPRMIPRP | 0.0468
RRIRNRPPRLPRPRPRPRMKPRP | -0.0273
RRIRNRPPRLPRPRPRPRNHPRP | -0.0174
RRIRNRPPRLPRPRPRPRPTPRP | 0.658
RRIRNRPPRLPRPRPRPRQTPRP | 0.112
RRIRNRPPRLPRPRPRPRREPRP | 0.38
RRIRNRPPRLPRPRPRPRRNPRP | -0.03
RRIRNRPPRLPRPRPRPRTEPRP | -0.279
RRIRNRPPRLPRPRPRPRVEPRP | 0.345
RRIRNRPPRLPRPRPRPRVQPRP | -0.00489
RRIRNRPPRLPRPRPRPRWGPRP | -0.0125
RRIRNRPPRLPRPRPRPSAFPRP | -0.249
RRIRNRPPRLPRPRPRPSATPRP | -0.0839
RRIRNRPPRLPRPRPRPSCKPRP | 0.065
RRIRNRPPRLPRPRPRPSCSPRP | -0.384
RRIRNRPPRLPRPRPRPSDCPRP | -0.483
RRIRNRPPRLPRPRPRPSESPRP | -0.0302
RRIRNRPPRLPRPRPRPSFTPRP | -0.255

Sequence | shrunken log2 fold change
RRIRNRPPRLPRPRPRPSFYPRP | -0.658
RRIRNRPPRLPRPRPRPSGHPRP | -0.141
RRIRNRPPRLPRPRPRPSGSPRP | -0.0937
RRIRNRPPRLPRPRPRPSHVPRP | -0.0765
RRIRNRPPRLPRPRPRPSIIPRP | -0.856
RRIRNRPPRLPRPRPRPSKDPRP | -0.285
RRIRNRPPRLPRPRPRPSKEPRP | -0.0243
RRIRNRPPRLPRPRPRPSPMPRP | -0.0245
RRIRNRPPRLPRPRPRPSPNPRP | -0.552
RRIRNRPPRLPRPRPRPSQEPRP | 0.299
RRIRNRPPRLPRPRPRPSSIPRP | -0.0475
RRIRNRPPRLPRPRPRPSSSPRP | -0.0202
RRIRNRPPRLPRPRPRPSTQPRP | -0.502
RRIRNRPPRLPRPRPRPTCEPRP | -0.0176
RRIRNRPPRLPRPRPRPTDQPRP | 0.362
RRIRNRPPRLPRPRPRPTECPRP | -0.0689
RRIRNRPPRLPRPRPRPTEEPRP | -0.00968
RRIRNRPPRLPRPRPRPTFTPRP | -0.245
RRIRNRPPRLPRPRPRPTGAPRP | 0.256
RRIRNRPPRLPRPRPRPTGGPRP | 0.154
RRIRNRPPRLPRPRPRPTGIPRP | 0.0288
RRIRNRPPRLPRPRPRPTHMPRP | 0.0687
RRIRNRPPRLPRPRPRPTISPRP | -0.969
RRIRNRPPRLPRPRPRPTKSPRP | 0.141
RRIRNRPPRLPRPRPRPTLCPRP | 0.00464
